Several values for one entry are separate records, joined by “and”; a condition that tells them apart may be missing. Identical values can stand only once. Blank lines part the entries; values can stand above or below the molecule they belong to.
Legend:
[1] = system: replication protein A (RPA); conditions: cited from earlier work
From the text: This is the first report to identify a particular protein sequence with D/E repeats capable of competition with Z-DNA for binding to Zα, while the potential of acidic residues for DNA mimicry, referring to B-DNA or ssDNA, have been observed previously.

[2] = molecular target: T1, Zα (Homo sapiens, UniProt P55265); experiment: SEC-MALS of Zα and Zα-D/E-rich peptide complexes; format: binding; conditions: Zα 2.7 mg/ml, expected ~8.8
T1 construct: Zα of human ADAR1; residues 133–209; His6 (pMCSG7, followed by a TEV site) (N, cleaved yes); made in house; host or cells: E. coli BL21(DE3)
T1 sequence (P55265 133-209): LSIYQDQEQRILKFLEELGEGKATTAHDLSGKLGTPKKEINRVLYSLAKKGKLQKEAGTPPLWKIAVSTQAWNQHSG
Description: SEC−MALS measurements were conducted using a miniDAWN TREOS detector and an Optilab T-rEX differential refractive index detector (Wyatt Technology Corporation) coupled to an Agilent 1260 Infinity HPLC system. The SEC experiments were performed on an ENrich SEC 70 10 × 300 column (Bio-Rad) equilibrated in a buffer containing 20 mM HEPES–NaOH pH 7.5, 50 mM NaCl, 1 mM TCEP and 0.02% NaN3. The protein Zα alone (2.7 mg/ml) or the mixture of Zα and the D/E-rich peptide at various molar ratios and incubation periods as indicated was loaded onto the column at a flow rate of 0.5 ml/min. Bovine serum albumin (A1900; Sigma) was used for system calibration and molecular weights were calculated using ASTRA 6 software (Wyatt Technology Corporation) with a dn/dc value of 0.185 ml/g.
Figure 3. Analysis of complex formation of Zα and the D/E-rich domain. […] The left y axis represents the normalized UV absorbance at 280 nm, while the right y axis represents the molecular weight (Da). The horizontal traces show the calculated molecular weight. […] TEXT PRINTED IN THE PICTURE: (C) Zα: Measured MW (kDa): 9.8 ± 0.1; Expected MW (kDa): ~8.8 | (C) 1Zα: 1DE: Measured MW (kDa): 12.7 ± 0.1; Expected MW (kDa): ~11.6 | (C) 2Zα: 1DE: Measured MW (kDa): 20.8 ± 0.3; Expected MW (kDa): ~20.5

[3] = molecular target: D/E-rich peptide of MBD3, unlabelled (full-length D/E-rich peptide) (human); experiment: SEC-MALS; Zα and D/E-rich peptide, equimolar (1, 16, 29 h) or 4:1 (1 h on ice); ENrich SEC 70 column; 20 mM HEPES-NaOH pH 7.5, 50 mM NaCl, 1 mM TCEP, 0.02% NaN3
[4] = system: d(CG)6 duplex; experiment: Circular dichroism of d(CG)6 DNA conformation
Description: CD spectra were measured at 24°C on a J-815 Spectrometer (JASCO) using a 1 mm path length quartz cell. Prepare 7.5 μM DNA duplex in a buffer consisting of 5 mM HEPES–NaOH pH 7.5, 25 mM NaCl and 1 mM DTT, and in the absence or presence of indicated concentration of proteins. Spectra were recorded between 235 and 305 nm wavelength with a data pitch of 1 nm, bandwidth of 1 nm and with two accumulations at a scanning speed of 10 nm/min.
Figure 6. Zα can compete with the MBD domain for binding to d(CG)6, but not vice versa. (A) CD spectra of the d(CG)6 duplex in the presence of Zα. CD spectra of (B) the d(CG)6 and (C) the d(C^mG)6 duplex, respectively, in the presence of the MBD domain. (D) Monitoring of the change in CD spectra with the addition of increased amounts of Zα to the pre-incubated mixture of the MBD domain and d(CG)6. (E) Monitoring of the change in CD spectra with the addition of increased amount of the MBD domain to the pre-incubated mixture of Zα and d(CG)6. Spectra are expressed in absolute values of ellipticity in millidegrees (mdeg).

[5] = molecular target: T1, Zα; experiment: SEC / SDS-PAGE complex formation with Zα; format: binding; conditions: Zα 100 μM : protein 25 μM (4:1), ice 1 h, 20 mM Tris–HCl pH 7.5, 50 mM NaCl, 1 mM TCEP
Description: Equimolar amounts (0.1 mM) of Zα and DE-rich peptide were incubated on ice for 1 h in a buffer containing 20 mM HEPES–NaOH pH 7.5, 50 mM NaCl, 1 mM DTT. The mixture was then loaded on a Superdex 30 16/600 column (GE Healthcare) equilibrated in the same buffer. The fractions from the peaks corresponding to Zα alone and the complex of Zα and DE-rich peptide were collected and used for chemical cross-linking.
To analyze complex formation of Zα and other proteins (MBD3, MBD or MBDDE), the mixtures were incubated on ice for 1 h in a buffer containing 20 mM Tris–HCl pH 7.5, 50 mM NaCl, 1 mM TCEP. The mixture was then loaded on a Superdex 75 or Superdex 200 increase 10/300 column (GE Healthcare).

[6] = Stability of E. coli-expressed protein; format: physicochemical; conditions: recombinant E. coli-expressed protein
[7] = system: His10-Zα; experiment: His10-Zα pull-down from HEK293 lysate with LC-MS/MS; format: binding, human; conditions: HEK293 cell lysate, Ni beads
Description: HEK293 cells were collected and the pellet was resuspended in the lysis buffer [(50 mM Tris–HCl pH7.5, 1% NP-40, 150 mM NaCl, 10 mM imidazole, 0.1 mM PMSF, 90 U/ml Benzonaes (Novagen) and EDTA-free protease inhibitor cocktail tablet (Roche)]. Lysate was clarified by centrifugation for 30 min at 16 000 × g at 4°C. The protein concentration was measured by using Bradford assay. 20 mg of HEK293 cell lysate was pre-cleaned by adding 1 ml of Ni sepharose (50% slurry) (GE Healthcare) and rotated at 4°C for 1 h. Add 1 mg of purified His10-Zα protein (buffer only as a negative control) to the pre-cleaned lysate and rotate at 4°C overnight. To capture His10-Zα protein, add 0.2 ml Ni sepharose (50% slurry) and incubate at 4°C for 1 h in a rotation wheel. […] Add trichloroacetic acid to precipitate and concentrate the eluates. The concentrated eluates were resuspended in NuPAGE LDS sample buffer (Invitrogen), run on NuPAGE 12% Bis–Tris gels (Invotrogen) and stained using Instant Blue (Expedeon). […]
To identify Zα-interacting proteins, the entire gel lanes were divided into several horizontal slices and subjected to in-gel trypsin digestion. The digested samples were analyzed by LC–MS/MS using LTQ-Orbitrap XL mass spectrometer (Thermo Fisher Scientific, Bremen, Germany). […]

[8] = molecular target: T2, Sso7d (UniProt P39476 2-64); experiment: fluorescence polarization; FP: 20 mM HEPES-NaOH pH 7.5, 50 mM NaCl, 1 mM DTT, 30 ul; temperature not stated; CD buffer not in material; conditions: unlabelled version also purchased; blunt; self-complementary duplex, annealed from 85°C
T2 sequence: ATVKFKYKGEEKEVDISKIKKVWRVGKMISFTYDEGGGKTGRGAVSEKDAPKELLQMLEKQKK

[9] = molecular target: T3, Zα (Z-DNA binding domain of ADAR1) (Homo sapiens, UniProt P55265 133-209); experiment: as above; conditions: protein: recombinant; tags: His10 (pET16b) or tag-free after TEV (pMCSG7); chain copies: 2; unlabelled version also purchased; blunt; self-complementary duplex, annealed from 85°C
T3 sequence: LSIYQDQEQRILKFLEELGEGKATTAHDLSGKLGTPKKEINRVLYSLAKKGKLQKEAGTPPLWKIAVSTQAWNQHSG

[10] = molecular target: MBD3 MBD domain (MBD3MBD) (Homo sapiens, UniProt O95983 1-72); experiment: fluorescence polarization; high affinity similar to Zα; Kd value not in material; FP: 20 mM HEPES-NaOH pH 7.5, 50 mM NaCl, 1 mM DTT, 30 ul; temperature not stated; CD buffer not in material; conditions: protein: recombinant; tags: His6 removed by TEV; unlabelled version also purchased; blunt; self-complementary duplex, annealed from 85°C

Molecule: EDWAGLDEDED [DSS1, protein whose D/E-rich segment (EDWAGLDEDED) acts as a DNA mimic]
attenuation of the affinity of RPA for ssDNA [1]: acts as a DNA mimic to attenuate the affinity of replication protein A (RPA) for ssDNA

measured MW, Zα alone [2]: 9.8 ± 0.1 kDa
stoichiometry N (Zα per D/E-rich peptide) [3]: 2 and 1
DNA conformation after binding ([4]; CD 235-305 nm, 24°C, 7.5 μM DNA duplex, 5 mM HEPES–NaOH pH 7.5, 25 mM NaCl, 1 mM DTT): induced the Z-DNA formation
B1: Zα, tag-free (Z-DNA binding domain of human ADAR1, residues 133-209), P55265 133-209 (domain or fragment)
chain: LSIYQDQEQRILKFLEELGEGKATTAHDLSGKLGTPKKEINRVLYSLAKKGKLQKEAGTPPLWKIAVSTQAWNQHSG
competition for binding to d(CG)6 (Zα added to pre-incubated MBD domain and d(CG)6) ([4]; CD, increasing Zα): able to compete with the MBD domain for binding to d(CG)6

B2: MBD3: full-length human MBD3; residue 1–291 (protein)
chain: MERKRWECPALPQGWEREEVPRRSGLSAGHRDVFYYSPSGKKFRSKPQLARYLGGSMDLSTFDFRTGKMLMSKMNKSRQRVRYDSSNQVKGKPDLNTALPVRQTASIFKQPVTKITNHPSNKVKSDPQKAVDQPRQLFWEKKLSGLNAFDIAEELVKTMDLPKGLQGVGPGCTDETLLSAIASALHTSTMPITGQLSAAVEKNPGVWLNTTQPLCKAFMVTDEDIRKQEELVQQVRKRLEEALMADMLAHVEELARDGEAPLDKACAEDDDEEDEEEEEEEPDPDPEMEHV
complex formation with Zα on SEC [5]: almost no detectable stable complex formation of Zα and MBD3
protein stability (in words) [6]: unstable with a large amount of aggregation and degradation
pull-down by Zα [7]: could be pulled down by Zα

B3: d(CG)6 (dsDNA)
DNA 1: CGCGCGCGCGCG
DNA 2: CGCGCGCGCGCG
Kd [8]: 262 ± 23 nM
Kd [9]: 40.3 ± 3.2 nM
binding result [10]: binds
